{"source": "paper PMC5173035", "key": {"[1]": {"molecular_target": "M1.HpyAVI, DNA N6-adenine methyltransferase from Helicobacter pylori 26695 (Helicobacter pylori 26695)", "experiment": "SEC; Superdex 75 10/300 column on FPLC, 0.05, 0.1, 0.2, 0.5 mg/ml protein loaded; calibrated with gel filtration calibration kit LMW"}, "[2]": {"molecular_target": "M1.HpyAVI, DNA N6-adenine methyltransferase from Helicobacter pylori 26695 (Helicobacter pylori 26695)", "experiment": "crystal structure; cofactor-free (3.0 Å, four monomers in the asymmetric unit) and AdoMet-bound (3.1 Å, eight monomers) crystals; dimer with the two monomers related by a two-fold axis; interface analysed with PDBePISA"}}, "data": [{"substance": "M1.HpyAVI, DNA N6-adenine methyltransferase from Helicobacter pylori 26695 (enzyme)", "values": [{"measurement": "stoichiometry N", "setting": "[1]", "value": 2}, {"measurement": "stoichiometry N", "setting": "[2]", "value": 2}]}]}
